Results taken from patent EP4339209A1 (MediMabbio Inc., dated 2024).

T1: human GITR expressed on human primary immune cells (T cells, NK cells, NKT cells of PBMC) (human, UniProt Q9Y5U5 26-241)
T1 construct: Native GITR of donor PBMC; also called hGITR in human primary immune cells; GITR on the surface of immune cells
T1 sequence: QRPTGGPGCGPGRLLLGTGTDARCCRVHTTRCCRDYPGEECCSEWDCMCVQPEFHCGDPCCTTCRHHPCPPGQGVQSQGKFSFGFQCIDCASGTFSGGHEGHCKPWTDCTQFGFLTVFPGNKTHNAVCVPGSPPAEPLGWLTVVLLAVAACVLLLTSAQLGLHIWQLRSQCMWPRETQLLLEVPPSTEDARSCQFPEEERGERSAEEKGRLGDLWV

T2: hGITR (including His tag; Cat. GIR-H5228, Acrobiosystems) (human, UniProt Q9Y5U5 26-162)
T2 construct: Bought protein; not shown: His tag
T2 sequence: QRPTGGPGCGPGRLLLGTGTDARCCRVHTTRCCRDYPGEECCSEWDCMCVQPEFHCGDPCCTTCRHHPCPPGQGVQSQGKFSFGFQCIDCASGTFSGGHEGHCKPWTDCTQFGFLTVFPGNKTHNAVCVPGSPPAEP


Key:
[1] = molecular target: T1, human GITR expressed on human primary …; assay: flow cytometry, AF488-labelled antibody on activated human PBMC
[2] = molecular target: recombinant human GITR (Cat No. 13643-H08H, Lot No. LC12JA2509, Sino Biological) (human) (UniProt Q9Y5U5); assay: SPR Biacore 8K, multi-cycle kinetics, purified IgG captured on Protein A, GITR as analyte
[3] = molecular target: recombinant human GITR (Cat No. 13643-H08H, Lot No. LC12JA2509, Sino Biological) (human) (UniProt Q9Y5U5); assay: SPR Biacore 8K, single-cycle kinetics, IgG in supernatant captured on Protein A, GITR as analyte
[4] = molecular target: T2, hGITR (including His tag; Cat. …); assay: DSS cross-linking of the GITR/51B complex, nLC-orbitrap MS/MS

| binding result [1] | Kd [2] | Relative KD (fold vs VH0/VL0) [2] | koff [2] | kon [2] | Kd [3] | Relative KD (fold vs VH0/VL0) [3] | koff [3] | kon [3] | binding result [4] | Binder |
| --- | --- | --- | --- | --- | --- | --- | --- | --- | --- | --- |
| binds | 0.675 nM | 1.19 | 0.00043 s⁻¹ | 636000 M⁻¹ s⁻¹ | 0.758 nM | 1.3 | 0.000467 s⁻¹ | 616000 M⁻¹ s⁻¹ | – | anti-GITR 51B VH3/VL4 humanized antibody (human IgG1, kappa) (antibody, V domains shown, also called VH3/Vk4; 51B VH3/Vk4) VH: QVQLVQSGAEVKKPGASVKVSCKTTGYRFTGYWIEWVRQPPGKGLEWIGEILPGSGATYYSENFKGKVTITADTSTDTAYMELSSLRSEDTAIYYCARKGGYYAMDYWGQGTLVTVSS VL: EIVLTQSPATLSLSPGERATLSCTASSSVSSSYFHWYQQKPGKAPKLWIYSTSNLQSGVPDRFSGSGSGTDYTLTISSLQAEDVATYYCHLYHRSPRTFGGGTKVEIKR |
| binds | 0.57 nM | 1 | 0.000314 s⁻¹ | 552000 M⁻¹ s⁻¹ | 0.566 nM | 1 | 0.000334 s⁻¹ | 590000 M⁻¹ s⁻¹ | – | anti-GITR 51B VH0/VL0 chimeric antibody (human IgG1, kappa) (antibody, V domains shown, Chimeric antibody; also called VH0/Vk0; 51B VH0/Vk0) VH: QVQLQQSGAELMKPGASVKLSCKTTGYRFTGYWIEWVKQRPGHGLEWIGEILPGSGATYYSENFKGKATFTADTSSNTAYMQVSSLTTGDSAIYYCARKGGYYAMDYWGQGTSVTVSS VL: QIVLTQSPAIMSASLGERVTMTCTASSSVSSSYFHWYQQKPGSSPKLWIYSTSNLASGVPARFSGSGSGTSYSLTVSSLEAEDAATYYCHLYHRSPRTFGGGTTLDIKR |
| – | – | – | – | – | – | – | – | – | binds | 51B antibody (as used in the epitope mapping, Example 1.7) (antibody, V domains shown, also called anti-GITR monoclonal antibody (51B clone)) VH: QVQLQQSGAELMKPGASVKLSCKTTGYRFTGYWIEWVKQRPGHGLEWIGEILPGSGATYYSENFKGKATFTADTSSNTAYMQVSSLTTGDSAIYYCARKGGYYAMDYWGQGTSVTVSS VL: QIVLTQSPAIMSASLGERVTMTCTASSSVSSSYFHWYQQKPGSSPKLWIYSTSNLASGVPARFSGSGSGTSYSLTVSSLEAEDAATYYCHLYHRSPRTFGGGTTLDIK |
